These results are taken from patent CN115746140A (SHENZHEN KANGTI BIOMEDICAL TECH CO LTD, dated 2023).

For orientation: Kd means the equilibrium constant for the complex coming apart. A lower Kd goes with tighter binding. For orientation: koff means the first-order rate constant of dissociation. The low end stands for slow dissociation, the high end for fast dissociation. The term kon denotes the rate constant with which the complex forms. Read a low kon as slower complex formation.

This assay deals with T1, PCSK9蛋白 (Proprotein convertase subtilisin kexin type 9) (UniProt Q8NBP7 31-692, limits assumed).
T1 construct: also called PCSK9抗原
T1 sequence (Q8NBP7 31-692 limits assumed): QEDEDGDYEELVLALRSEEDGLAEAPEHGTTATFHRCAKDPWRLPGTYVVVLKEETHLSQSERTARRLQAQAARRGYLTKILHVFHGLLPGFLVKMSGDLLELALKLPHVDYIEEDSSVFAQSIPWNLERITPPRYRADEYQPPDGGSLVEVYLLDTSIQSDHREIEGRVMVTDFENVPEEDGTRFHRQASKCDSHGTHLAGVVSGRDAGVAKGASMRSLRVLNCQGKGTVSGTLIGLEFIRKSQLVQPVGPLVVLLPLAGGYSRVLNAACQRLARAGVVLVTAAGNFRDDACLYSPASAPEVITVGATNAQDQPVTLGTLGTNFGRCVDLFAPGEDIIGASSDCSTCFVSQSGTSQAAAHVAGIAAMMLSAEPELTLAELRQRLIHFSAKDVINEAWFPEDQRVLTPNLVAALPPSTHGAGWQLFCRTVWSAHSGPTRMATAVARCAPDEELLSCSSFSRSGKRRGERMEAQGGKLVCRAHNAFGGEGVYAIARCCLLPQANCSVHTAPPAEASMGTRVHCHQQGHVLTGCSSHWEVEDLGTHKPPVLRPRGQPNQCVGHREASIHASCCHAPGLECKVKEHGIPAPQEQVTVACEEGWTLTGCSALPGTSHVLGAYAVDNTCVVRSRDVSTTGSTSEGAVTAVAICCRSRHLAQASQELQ
Briefly: SPR; immobilised partner and format not stated. For orientation: SPR reads the build-up and loss of mass on a sensor chip optically.

B1: 纳米抗体P2-11D (anti-PCSK9 nanobody P2-11D) (VHH)
VHH: DVQLQESGGGLVQPGGSLRLSCAASGFTFRAYDMGWYRQAPGKQRDLVAVISSSGGTPNYADSVKDRFTISRDNDKNTVYLQMNSLKSEDTALYYCNARWESSAYERDYWGRGTQVTVSS
notes: Monovalent alpaca VHH, expressed from pET22b in E. coli BL21 and purified on Ni resin and by size exclusion; also called 抗PCSK9单域重链抗体; 抗PCSK9的纳米抗体
Take B1: the equilibrium dissociation constant (Kd) stood at 70 nM, the koff was 0.00921 s⁻¹ and the kon is 130000 M⁻¹ s⁻¹.
